Laboratory results taken from the nanobody polyreactivity screen of Harvey et al. (2022).

Assay: yeast display, Sf9 membrane polyspecificity reagent, FACS + sequencing; frameworks hold sequencing errors
Outline: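 Galactose-induced (36–48 hours) yeast carrying a synthetic nanobody display library were exposed to 10% biotinylated, detergent-solubilized Sf9 membrane reagent at 4 °C for 1 hour. FACS followed streptavidin microbead enrichment, using low and high (top ~1%) gates for expression (anti-HA) and reagent binding (streptavidin). Colony PCR, MiSeq 2 × 250 sequencing and CDR-length filtering followed. Labels for polyreactivity reflect the gate of origin.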

Sequence	polyreactivity (PSR sort gate)
QVQLVESGGGLVQAGGSLRLSCAASGRIFVRYAMGWYRQAPGKERELVAAITKSGGSTYYADSVKGRFTISRDNAKNTVYLQMNSLKPEDTAVYYCNADRFYIDYTNTYDSIRDYWGQGTQVTVSS	low polyreactivity
QVQLQESGGGLVQAGGSLRLSCAASGTISPLPAMAWYRQAPGKEREFVAGIDTGAITNYADSVKGRFTISRANAKNTVYLQMNSLIPEDTAVYYCAVFPAAYDYYERYYTYWGQGTQVTVSS	low polyreactivity
QVQLVESGGGLVQAGGSLRLSCAASGSIFFVYAMGWYRQAPGKERELVAAIDWDGGSTYYADSVKGRFTISRDNAKNTVYLQMNSLKPEDTAVYYCAADAWDLYSDGQEYNYWGQGTQVTVSS	high polyreactivity
QVQLVESGGGLVQAGGSLRLSCAASGSIIDYYAMGWYRQAPGKERELVADITVTGDGTYYADSVKGRFTISRDNAKNTVYLQMNSLKPEDTAVYYCAADFWLVSFQWDFEYDYWGQGTQVTVSS	low polyreactivity
QVQLVESGGGLVQAGGSLRLSCAASGRIFGGNAMGWYRQAPGKERQLVAAISKRGGSTYYADSVKGRFTISRDNAKNTVYLQMNSLKPEDTAVYYCAATPYSDQGLDYGYWGQGTQVTVSS	high polyreactivity
QVKLVESGGGLVQAGGSLRISSAASGSTFYYYAMGWYRQAPGKESEFVASISSRGTSKYYADSVKGRFTISRDNAKNTVYLQMNSLKPEDTAVYYCAARGWCPTRAYDYWGQGTQVTVSS	high polyreactivity
QVQLVESGGGLVQAGGSLRLSCAASGIISSVYAMGWYRQAPGKERELVAAISGSGGSTYYADSVKGRFTISRDNAKNTVYLQMNSQKPEDTAVYYCSKGYQYQGNSYGYWGQGTQVTVSS	low polyreactivity
QVQLVESGVGLVQAGGSLRLICAASGRIFANYAMGWYRQAPGKERELVAAITGSGGTTYYADSVKGRFTISRDNAKNSVYLEMNSLKPEDTAVYYCATPPPVVWQRWYREYDYWGQGTQVTVSS	low polyreactivity
HVQLVESGGGLVQAGGSLRLSCAASGRIFSVYTMGWYRQAPGKDRELVATISSGGRTNYADSVKGRFTISRDNAKNTVYLQMNSLKPEDTAVYYCAAVPYGFVGYDDYWGQGTQVTVSS	low polyreactivity
QVQLVESGGGLVQAGGSLRLSCAASGRTFYYNGMGWYRQAPGKERELVAAITSGGTTSYADSVKGRFTISRDNAKNTVYLQRNSLKPEDTAVYYCNADYWAVNYDYWGQATQVTVSS	low polyreactivity
QVQLEESGRGLVQAGGSLRLSCAASGSIFIVYAIGWYRQAPGKERELVAAINDGGSTSYADSVKGRFTISRDNAKNTVYLQMNSLKPEDTAVYFCAAETYLGNDYWEDYYWGQGTQVTVSS	low polyreactivity
QVQLVESGGGLVQAGGSLRLSCAASGSTFYYYAMGWYRQAPGKERELVAAITSGGSTDYADSVKGRFTISRDNAKNTVYLQMKSLKPEDTAVYYCAKDSQSYTREAYYYWGQGTQVTVSS	low polyreactivity
QVQLVESGGGLVQAGGSLRLSCAASGLTFNYYDMGWYRQAPGKERELVAAISRSGTNTSYADSVKGRFTISRDNAKNTVYLQMNSLKPEDTAVYYCNAAGVYLAAGPFTANFNYNYWGQGTQVTVSS	low polyreactivity
QVQLVESGGGLVQAGGSLRLSCAASGLIFLAYTMGWYRLAPGKVRELVAAISYSDGSTYYADSVKARFTISRDNANNTVYVQMNSLKPEDTAVYYCAARPRPPLRSYDYWGQGTQVTVSA	low polyreactivity
QVQLVESVGGLGQAGGSLRLSCAASGSIFVLNARGWSRQAPGKERELVAGITYSGGSTYYADSVKGRFTISRDNATNTVYLQMNSLKPEDTAVYSCAAPVRRYPYPGRFYYWGQGTQVTVSS	low polyreactivity
QVQLVESGGGLVQAGGSLRLSCASSGYILRSNAMVWYRQAPGKEREFVAAITYSGGTTYYADSVKGRFTISRDNAKNTVYLQMNSLKPEDTAVYYCNADYGYYKLDYWGQGTQVTVSS	low polyreactivity
QVQLVESGGGLFQAGGSLRLSCAASGSIFWPNTMGWYRQAPGKERELVATISSGGDTSYADSVKGRFTISRDNEKNTVYLQMNSLKPEDTAVYYLAKSITVDDVHPRALTYNYWGQGTQVTVSS	low polyreactivity
QVHLVESGGGLDQAGGSLRLSSAASGTTYRYAMGCYRQAPGKAMELVATISSRGGTTSYADSVKGRFTISRDNAKNTVYLQMNSLKPEDTAVYSCAAGQFPKYFSDDADMDYWGQGPQVTVSS	low polyreactivity
QVQLVESGGGLVQAGGSLRLSCAASGGIFSYYAMGWYIQAPGKERELVAAISGSGGRTYYADSVKGRFTLSRDNAKNTVYLQMNSLKPEDTAVYYCAAYPVNRVDYRYDYWGQGTQVTVSS	high polyreactivity
QVQLVESGGGLVQAGGSLRLSCAASGSTSGFYAMGWYRQAPGKERELVAAIDVSGGSTYYADSVKGRFTISRDNAKNTVYLQIHSLKPEDTAVYYCAAYRRNVWSARYGYWGQGTQVTVSS	high polyreactivity
QVQLVESGGGLVQAGGSLRLICAASGSIFRSYAMGWYRQAPGKERELVAPIDRSGGSTYYADSVKGRLTISRDYAKNTVYCQLNSLKPEDTAVYNSNKTPHFPRPGFNYWGLGTQVTVSS	low polyreactivity
QVQLVESGGGLVQAGGSLRLSCAASGSTFEQYAMGWYRQAPGTERELVASISTGGGRTYYADSVKGRFTISRDNAKYTVYLQMNSLKPEETAVFYCNKRYRGYKTGYSRFDYWVQGTQVTVSS	low polyreactivity

Sequence	polyreactivity (PSR sort gate)
QVQLVESGGGLVQAGGSLRLSCAASGNTFFVYAMGWYRQAPGKERELVADINWSTGSTYYADFVKGRFTISRDNAKNTVYLQMNSLKPEDTAVYYCAAEAYYYVIFHGSWYTDDYWGQGTQVTVSS	low polyreactivity
QVQLVESGGGLVQAGGSLRLICAASGSIFTSNAMGWYRQAPGKERELVAAITSDGAITYADSVKGRFTISRDNAKNTVYLQMNSLKPEDTAVYYCATEIEYYVGSVADMGYWGQGTQVTVSS	low polyreactivity
QVQLVESAVGLVQAGGSLRLSSAASGFTFPLYAMGWYRQEHGKEREFVPVISRSGGSTYYADSVKGRFTISRDNAKNTVYLQMNSLKPEDTAVYYCAARLVPRSPERGNYDYWGQGTQVTVSS	high polyreactivity
QVQLVESGGGLVQAGGSLRLSCAASGRIFKRNAKGWYRQAPGKEWELVATISGSGGSTYYADSVKGRFTISRDNAKNTVYLQMNSLKPEDTAVYYCAAVPGYPRDSLYNYWGQGSQVTVSS	high polyreactivity
QVQLVESGGGLVQAGGSLRLSCAASGSIFVGYAMGWYRQAPGKERELVAAISKSGGSTYYADSVKGRFTISRDNAKNTDYLQMNSLKPEDTAVYYCATRTHRRGNYLSITHEYWGQGTQVTVSS	high polyreactivity
QVQLEESGGGLVQAGGSLRLSCAASGRIFIRNAMGWYRQAPGKERELVAAISYSGGSTYYADSVKGRFTISRDNAKNTVYLQMNSLKPEDTAVYYCAAGSIRGTSFYYWGQGTQVTVSS	high polyreactivity
QVQLVESGGGLVQAGGSLRLSCAASGRTFRGNALGWYRQAHGKERELVAAITGTGGSTYYADSVKGRFTISRDNAKNTVYLQRNRLKPEDTAVYYCAAVLRGHNGLKFEYWGQGTQVTVSS	high polyreactivity
QVQLVESGGGLVQAGGSLRLSCAASGRIFWSYAMGWYRQAPGKEREFVAVITWSGGSTYYADSVKGRFTISREYAKNTVYLEMNSLKPEDTAVYYCKADYYGPYRDYGYWGQGTQVTVSS	low polyreactivity
QVQLVESGGGLVHAGGSLRLSCAASGSIFGFNAMGWYRPAPGKERELVAAISSGSTYYADSVKGRYTISRDNAKTTVYLQMNSLKPEDTAVYYCAATTGYSWYGYWGQGTQVTVSS	low polyreactivity
QVQLVESGGGLVQAGGSLRLSCAASGFIISVYAMGWYRPAPGKERELVARIDSGGSTYYADSVKGRFTISRDNAKNTVYLQMNSLKPEDTAVYYGATDEGTVGGQQLRPLMDYWGQGTQVTVSS	low polyreactivity
QVQLVESGGGLVQAGGSLRLSCAASGLTFKYYAMGWYRQAPGKERELVAAITATGGRTYYADSVKGRFTISRDIAKNTVYLQLNSLNPEDTAVYYCNARQYQTYYFYKHDYWGQGTQVSVSS	high polyreactivity
QVQLVESGGGLVQAGGSLRLSCAASGSIFGQYAMGCYRQAPGKERELVATISSSGGSTYYADSVKGRFTISRDNAKNTVYLQMNSLKPEDTAVYYCAADWTLDPSYGYYADDYWGQGTQVTVSS	low polyreactivity
QVQLVESGGGLVQAGGSLRLSCAASGSIFYHNAMGWYRQAPGKERELVARISSRGGSTYYADSVKGRFTISRDNAKNTVYLQMNSLKPEDTAVYYCNNAYRYTSAYDYWGQGTQVTVSS	high polyreactivity
QVQLVESGGGLVQAGGSLRLICAASGRTIRYYAMGWYRQAPGKERELVAAITQNGGRTYYADSVKGRFTISRDNAKNTVYLQMNSLKPEDTAVYYCAKAFIQPGDKYDSWGQGTQVTVSS	high polyreactivity
QVQLVESGGGLVQAGGSLRLSCAASGFIFRTYSMGWYRQAPGKERELVAAISGTTGSTYYADSVKGRFTISRDNAKNTVYLQMNRLKPEDTAVYYCAADYYWYIRYDYWGQGTQVTVSS	low polyreactivity
QVQLVESGGGLVQAGGSLRLSCAASGFTFARYAMGWYIQAPGKEREFVAAISLSTTSTYYADSVKGRFTISRDNAKNTVYLQMNSLKPEDTAVYYCATDIVGPHVDYWGQGTQVTVSS	low polyreactivity
QDQHVESGGGLVQAGGSLRLSCAASGTTFSLYMGWNRQSPGKERKLVAAITYSGGRTYYADSVKGRFTISRDNAKNTVYLQMNSLKPEDTAVYYCGTVFNDLTVYEYWSRFDYWGQGTQVTVSS	low polyreactivity
QVQLVESGGGLVQAGGSLRLSCAASGRIFRAYAMGWYRQAPGKERELVAAITSGVSTNYADSVKGRFTISRDNAKNTVYLQMNSLKPEDTAVYYCAADIYVIYEYWGQGTQVTVSS	low polyreactivity
QVQLVESGGGLVQAGGSLRLSCAASGRSFRYYAMGWYRQAPGKERELVAAISVSGGTTYYADSVKGRFTISRDNAKNTVYLQMNSLKPEDTAVYYCNAYYLAEYDYWGQGTQVTVSS	high polyreactivity
QVQLVESGGGLVQAGGSLRLSCAASGIIFLDNARGWYRQAPGKERELVAAYADSVKGRFTISRDNAKNTVYLQMNSLKPEDTAVYYCNAGWFRNYGFSIVTYDYWGHGTQVTVSS	low polyreactivity
QVQLVESGGGLVQAGGSLRISCAASGITFGRYTMGWYRQAPGKERELVAAITNGDITYYADSVKGRFTISRDNAKNTVYLQMNSLKPDDTAVYYCAADRYFWYDYWGQATQVTVSS	high polyreactivity
